Experimental data taken from patent publication US9962427B2, “Treatment of right ventricular dysfunction due to pressure overload” (OTTAWA HOSPITAL RESEARCH INSTITUTE, priority 2016, dated 2018).

What was measured:
Fischer CDF rats = assay: SU5416/hypoxia model of severe pulmonary hypertension, weekly echocardiography and hemodynamics; assay type: in vivo, rat
Procedure: FIGS. 5A and 5B. Human Cardiotrophin-1 (hCT1) improves RV adaptation to severe Pulmonary Hypertension (PH) in Fischer rats.
Given that CT-1 induces phenotypic characteristics associated with beneficial RV physiologic adaptive compensation, a prediction was made by the Applicants that CT-1 would enhance RV adaptation to increased afterload in a disease setting. This supposition was tested to examine whether CT-1 protein can improve the ability of the RV to functionally adapt and limit or reduce right heart failure that is associated with pulmonary arterial hypertension (PAH), a form of PH caused by abnormalities in the lung vasculature (FIGS. 5A and 5B). PAH has a highly tractable and reproducible rodent equivalent, the […]/hypoxia rat model, which recapitulates many key aspects of the disease including progressive right heart failure in the Fischer CDF™ rat strain, a feature that is not observed in the Sprague Dawley strain in the same model of PH. Use of this PH model offers a clear advantage in providing an accurate preclinical disease setting to test the utility of CT-1, rather than simply testing co-administration of CT-1 with general […] stimulants such as PE or ISO in vivo. […] Also, right heart failure drives symptoms and prognosis in many forms of PH, including in Group 2 PH caused by increases in left ventricular filling pressures, of which heart failure with preserved ejection fraction (HFpEF) is an important example which is increasingly recognized as one of the greatest therapeutic challenges in clinical cardiology today. PH was induced by administering a single subcutaneous injection of SU5416 (20 mg/kg) to Fischer CDF™ rats followed by exposure to chronic hypoxia (8-10% O2) for 3 weeks. After these 3 weeks, rats were recovered for 24 hours in normoxia before implantation of PBS filled (control) or hCT-1 filled (6 μg/kg/hr delivery) osmotic minipumps. Control rats were exposed to normoxic conditions throughout the study and only treated with PBS (FIG. 5A). Echocardiography analyses were conducted weekly and the following parameters were measured: Right Ventricle Posterior Wall thickness (RVPW), Ratio of Right Ventricle Internal Diameter to Left Ventricle Internal (RVID/LVID), Pulmonary Artery Acceleration Time (PAAT), Fractional Area Change (FAC), and Cardiac Output (CO). At 3 weeks (prior to pump implantation), there was already a marked and significant increase in the RVID/LVID ratio, indicative of developing RV failure in this model of severe PH. In PH animals receiving saline, there was a progressive increase in this ratio over the subsequent 3 weeks, associated with other evidence of progressive RV failure, such as worsening contractile function (Fractional Area Shortening) and reductions in cardiac output.

NF-κB = NF-κB luciferase reporter in primary neonatal cardiomyocytes; assay type: cell-based; conditions: hCT1 0.5 nM
Procedure: FIGS. 6A, 6B, and 6C. Stimulation with hCT1 causes sustained activation of NF-κB and Stat3 with limited activation of Mef2, as well as limited Nfat activation; the latter two indices are distinct expression patterns from pathologic hypertrophic stimulation. FIG. 6A Primary neonatal cardiomyocytes were transfected with luciferase reporter plasmids (NF-κB or Mef2), as indicators of hypertrophic activity. Luciferase activity was measured after treatments for 24 hrs with: hCT1 (0.5 nM), PE (100 μM), or procaspase 3 activating compound 1, PAC-1 (25 μM) (left). Treatments at early timepoints (30 min, 1 hr, and 3 hr) were also conducted for hCT1 (right). FIG. 6B Primary neonatal cardiomyocytes were transfected with a luciferase reporter plasmid for Stat3. Luciferase activity was measured after treatments for 24 hrs with: hCT1 (0.5 nM), PE (100 μM), or procaspase 3 activating compound 1, PAC-1 (25 μM) (left) and at earlier time points (right). […] Luciferase activity was measured after treatments for 24 hrs with: hCT1 (0.5 nM), PE (100 μM), or procaspase 3 activating compound 1, PAC-1 (25 μM) (left) and at earlier time points (right)
The signaling pathways that CT-1 engages in mediating physiologic adaptive compensatory remodeling were examined. […] Primary neonatal cardiomyocytes were transfected with luciferase reporter plasmids (NF-κB and Mef2) to be used as a read out of transcriptional activity. […]

[1] = hCT-1 6 μg/kg/hr minipump from week 3
[2] = hCT-1 6 μg/kg/hr minipump from week 3, over 3 weeks

B1: hCT1: Recombinant human CT1 protein; 201 amino acid sequence, GenBank Accession Nos AAD12173 and AAA85229 (human) (protein, UniProt Q16619 1-201, looked up)
Cardiotrophin-1: MSRREGSLEDPQTDSSVSLLPHLEAKIRQTHSLAHLLTKYAEQLLQEYVQLQGDPFGLPSFSPPRLPVAGLSAPAPSHAGLPVHERLRLDAAALAALPPLLDAVCRRQAELNPRAPRLLRRLEDAARQARALGAAVEALLAALGAANRGPRAEPPAATASAASATGVFPAKVLGLRVCGLYREWLSRTEGDLGQLLPGGSA
RV afterload (right ventricular systolic pressure, RVSP) (Fischer CDF rats; [1]): without any alteration in the RV afterload | right atrial pressure (RAP) (Fischer CDF rats; [1]): significant decrease in right atrial pressure | RVID/LVID ratio (Fischer CDF rats; [2]): progressive improvement in the RVID/LVID ratio | cardiac output (Fischer CDF rats; [2]): improvements | contractile function (Fischer CDF rats; [2]): improvements in contractile function | NF-κB luciferase activity at 1 hr and 3 hr (NF-κB): significant activation | NF-κB transcriptional activity at 24 hrs (NF-κB): sustained
